Data published in US20070192880A1, “Horming response element binding transregulators” (UNIVERSITY OF ROCHESTER, priority 2003, published 2007).

Columns and labels:
[1] = test system: PRE 5′-AGAACAnnnTGTTCT-3′; experiment: luciferase reporter bearing a single PRE, COS-1 cells; type: cell-based, African green monkey; conditions: PR with 10^−8 M Progesterone
Procedure: (§1) An ERE drives the expression of the firefly luciferase cDNA as the reporter enzyme from the TATA box promoter. […] The reporter vector contains no (TATA) or two ERE half sites with 0, 1, 2, 3, 4, 5, 10 or 15 non-specific central nucleotides. FIGS. 4C and 4D show COS-1 cells were transfected with expression vectors bearing none (V), RXRα (Panel C) PR (Panel D), ERα, (VP16)2-CDC-(p65)2 or (p65)2-CDC-(VP16)2 cDNA. Cells were treated with 10^−6 M 9-cis-retinoic acid for RXRα, 10^−8 M Progesterone for PR or 10^−9 M E2 for ERα for 24 h. The TATA box reporter vector bears one consensus RXRE 5′-AGGTCAnAGGTCA-′3 (Panel C) or PRE 5′-AGAACAnnnTGTTCT-3′ (panel D) that drives the expression of the reporter firefly luciferase cDNA. Normalized luciferase values represented as fold change are the mean±SEM of three independent experiments performed in duplicate.
(§2) Culturing and transfection of the mammalian COS-1 and […] MDA-MB-231 cells were described previously (Muyan, M. et al. (2001) Mol Cell Endocrinol 182,249-263; Yi, P. et al. (2002) Mol Endocrinol 16, 1810-1827), with the exceptions that 48 well cell culture plates were used and Trans-IT LTI transfection reagent (Mirus Corp., Madison, Wis.). Luciferase assays were performed with a Dual Luciferase Assay kit (Promega) according to the manufacture's recornmendations. […]

[2] = test system: consensus RXRE 5′-AGGTCAnAGGTCA-3′; experiment: luciferase reporter bearing one RXRE, COS-1 cells; type: cell-based, African green monkey; conditions: RXRα with 10^−6 M 9-cis retinoic acid
Procedure: as §1, §2

B1: Progesterone Receptor (protein, UniProt P06401 1-933, looked up)
Progesterone receptor: MTELKAKGPRAPHVAGGPPSPEVGSPLLCRPAAGPFPGSQTSDTLPEVSAIPISLDGLLFPRPCQGQDPSDEKTQDQQSLSDVEGAYSRAEATRGAGGSSSSPPEKDSGLLDSVLDTLLAPSGPGQSQPSPPACEVTSSWCLFGPELPEDPPAAPATQRVLSPLMSRSGCKVGDSSGTAAAHKVLPRGLSPARQLLLPASESPHWSGAPVKPSPQAAAVEVEEEDGSESEESAGPLLKGKPRALGGAAAGGGAAAVPPGAAAGGVALVPKEDSRFSAPRVALVEQDAPMAPGRSPLATTVMDFIHVPILPLNHALLAARTRQLLEDESYDGGAGAASAFAPPRSSPCASSTPVAVGDFPDCAYPPDAEPKDDAYPLYSDFQPPALKIKEEEEGAEASARSPRSYLVAGANPAAFPDFPLGPPPPLPPRATPSRPGEAAVTAAPASASVSSASSSGSTLECILYKAEGAPPQQGPFAPPPCKAPGASGCLLPRDGLPSTSASAAAAGAAPALYPALGLNGLPQLGYQAAVLKEGLPQVYPPYLNYLRPDSEASQSPQYSFESLPQKICLICGDEASGCHYGVLTCGSCKVFFKRAMEGQHNYLCAGRNDCIVDKIRRKNCPACRLRKCCQAGMVLGGRKFKKFNKVRVVRALDAVALPQPVGVPNESQALSQRFTFSPGQDIQLIPPLINLLMSIEPDVIYAGHDNTKPDTSSSLLTSLNQLGERQLLSVVKWSKSLPGFRNLHIDDQITLIQYSWMSLMVFGLGWRSYKHVSGQMLYFAPDLILNEQRMKESSFYSLCLTMWQIPQEFVKLQVSQEEFLCMKVLLLLNTIPLEGLRSQTQFEEMRSSYIRELIKAIGLRQKGVVSSSQRFYQLTKLLDNLHDLVKQLHLYCLNTFIQSRALSVEFPEMMSEVIAAQLPKILAGMVKPLLFHKK
notes: expressed from vector, treated with Progesterone
reporter enzyme activity from a single PRE [1]: enhanced the reporter enzyme activity

B2: Retinoic X Receptor α (protein, UniProt P19793 1-462, looked up)
Retinoic acid receptor …: MDTKHFLPLDFSTQVNSSLTSPTGRGSMAAPSLHPSLGPGIGSPGQLHSPISTLSSPINGMGPPFSVISSPMGPHSMSVPTTPTLGFSTGSPQLSSPMNPVSSSEDIKPPLGLNGVLKVPAHPSGNMASFTKHICAICGDRSSGKHYGVYSCEGCKGFFKRTVRKDLTYTCRDNKDCLIDKRQRNRCQYCRYQKCLAMGMKREAVQEERQRGKDRNENEVESTSSANEDMPVERILEAELAVEPKTETYVEANMGLNPSSPNDPVTNICQAADKQLFTLVEWAKRIPHFSELPLDDQVILLRAGWNELLIASFSHRSIAVKDGILLATGLHVHRNSAHSAGVGAIFDRVLTELVSKMRDMQMDKTELGCLRAIVLFNPDSKGLSNPAEVEALREKVYASLEAYCKHKYPEQPGRFAKLLLRLPALRSIGLKCLEHLFFFKLIGDTPIDTFLMEMLEAPHQMT
modifications: treated with 9-cis retinoic acid
notes: expressed from vector, treated with 9-cis retinoic acid
luciferase activity from a reporter plasmid bearing one RXRE [2]: augmented the enzyme activity
